Test results taken from publication PMC5402868.

Key:
[1] = molecular target: α-synuclein-YFP transgene product in C. elegans (UniProt P37840); test: FRET or BRET
[2] = molecular target: α-synuclein-YFP fusion protein (recombinant) (UniProt P37840); test: FRET or BRET

decrease of mean YFP fluorescence lifetime during ageing [1] [ps]	mean YFP fluorescence lifetime in cells, day 4 [2] [ps]	mean YFP fluorescence lifetime, day 4 (oligomeric species) [2] [ps]	Substance
130			α-synuclein-YFP transgene product in C. elegans (from UniProt P37840 1-140) (natural protein)
	1480	2960	α-synuclein-YFP fusion protein (recombinant) (from UniProt P37840 1-140) (natural protein)
